Here are results for eleven compounds from patent US12214059B2, “Cleavable radioligands for targeting cell surface receptors and uses thereof” (Full-Life Te[…] Limited, priority 2021, dated 2025).

In one data set the target is T1, PSMA (Homo sapiens, UniProt Q04609).
T1 construct: host or cells: LNCaP cells
In words: Cell-based radioligand competitive binding assay (^125I-C-8, LNCaP cells). Conditions: C-1 = 1.00. How it is done:
The culture medium was replaced with fresh medium every 2-3 days. Experiments were performed with cells at 70-80% confluence.
The final volume in each well was maintained at 200 μL and insufficient volume was adjusted by the binding buffer.

The nature of data set [1]: Ex-vivo mouse plasma stability study of ^177Lu-labeled compounds. It counts as in vitro ADME. Conditions: 37° C. The procedure:
Plasma Stability Study (Mouse and Human)
Mouse blood was collected via cardiac puncture of the left ventricle. Blood was placed into heparin-coated microfuge tubes and then centrifuged at 3500 rpm for 10 min to separate plasma for stability studies. Human plasma was purchased directly.
At each time point (0, 1, 2, 4, 24, 48 72 h), an aliquot of 25 μL sample was taken and mixed with 100 μL methanol containing 1% formic acid, vertex for 30-60 sec, then centrifuged at 20000 rpm for 10 min. 100 μL supernatant was collected and diluted with 40 μL H2O. 100 μL of the resulting mixture was injected to radio-HPLC for stability assessment, as shown examples FIG. 2 and FIG. 3. The best-fit T½ value of test compounds were calculated by fitting the data with linear or non-linear regression using GraphPad Prism 8.0.1.

Data set [2] relates to PC-3 PIP tumor-bearing mice. In words: Biodistribution study in SCID mice bearing PC3-PIP tumor. The conditions noted are these: for T/K at 4 h (tumor uptake/kidney uptake) / T at 24 h (tumor uptake) / T/K at 24 h (tumor uptake/kidney uptake) / T at 96 h (tumor uptake) / T/K at 96 h (tumor uptake/kidney uptake): PC3 PIP tumor-bearing mice. It counts as in vivo, mouse. How it is done:
Biodistribution Study in SCID Mice Bearing PC3-PIP Tumor
Severe combined immunodeficient (ICR-SCID) mice from the Institute of Cancer Research (Taconic Farms, Germantown, NY) were utilized for these studies. […] These mice received bilateral subcutaneous rear flank injections of approximately 10×10^6 PC-3 PIP cells (prostate cancer cell PC-3 stably expressing human PSMA) suspended in 100 μL of 0.9% NaCl. […] The tissues and organs were weighed, counted in a PerkinElmer Wizard 3 automatic γ counter, and the percent injected dose (% ID) and % ID/g of each organ or tissue were calculated, as shown in Tables 5-24 and FIG. 1 and FIG. 2.

[3] abbreviates: based on the mean value of the IC50 number.
Where [4] appears, read: * = value obtained using nonlinear regression.

T1 sequence (Q04609 whole entry): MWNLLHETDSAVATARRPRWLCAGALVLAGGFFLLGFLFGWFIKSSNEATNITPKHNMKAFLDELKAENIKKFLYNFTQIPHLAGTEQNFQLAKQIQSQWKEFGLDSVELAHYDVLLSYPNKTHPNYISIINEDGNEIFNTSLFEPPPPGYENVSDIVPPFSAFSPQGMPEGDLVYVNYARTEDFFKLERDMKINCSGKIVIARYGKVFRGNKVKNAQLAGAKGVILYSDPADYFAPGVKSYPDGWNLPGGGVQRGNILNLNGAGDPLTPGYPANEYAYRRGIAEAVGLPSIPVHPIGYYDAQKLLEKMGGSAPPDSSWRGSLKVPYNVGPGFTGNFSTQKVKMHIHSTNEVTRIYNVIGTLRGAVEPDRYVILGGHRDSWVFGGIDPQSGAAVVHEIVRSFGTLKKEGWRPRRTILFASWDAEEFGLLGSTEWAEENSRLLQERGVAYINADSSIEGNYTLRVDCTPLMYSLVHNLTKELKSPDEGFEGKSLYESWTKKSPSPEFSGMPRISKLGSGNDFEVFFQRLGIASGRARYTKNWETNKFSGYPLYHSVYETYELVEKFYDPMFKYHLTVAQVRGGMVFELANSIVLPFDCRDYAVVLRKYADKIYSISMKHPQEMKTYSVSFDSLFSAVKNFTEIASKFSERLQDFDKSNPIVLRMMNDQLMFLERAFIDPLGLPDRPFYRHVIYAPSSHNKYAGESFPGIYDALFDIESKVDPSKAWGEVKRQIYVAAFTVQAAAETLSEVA

As for `O=C(O)CC[C@H](NC(=O)N[C@@H](CCCCNC(=O)[C@H](Cc1ccc2ccccc2c1)NC(=O)[C@H]1CC[C@H](CNC(=O)[C@H](CCCCNC(=O)CN2CCN(CC(=O)O)CCN(CC(=O)O)CCN(CC(=O)O)CC2)NC(=O)[C@H](CCC(=O)O)NC(=O)CCCc2ccc(I)cc2)CC1)C(=O)O)C(=O)O` [Example C-2, 4pIBA-Glu-Lys(DOTA)-Trx-2NaI-eKuE, reference compound], on PSMA (setting [3]), the “Relative Binding Affinity” value is 1.78. For the same compound, the “Relative Binding Affinity” value at PSMA (relative) turned out to be 1.78. In addition, in data set [1], the “% Remaining 0 min” value was 100%, the “% Remaining 1 h” value was determined as 100%, the “% Remaining 4 h” value was 100% and the “% Remaining 24 h” value amounted to 100%. Also, in data set [1], the “% Remaining 48 h” value is recorded as 100% and the “% Remaining 72 h” value stood at 100%. Moreover, in data set [1] (setting [4]), the “T½ (h)” value is given as “Stable”. For the same compound, in data set [2], the “T/K at 4 h (tumor uptake/kidney uptake)” value is 0.3, the “T at 24 h (tumor uptake)” value is recorded as 41.1, the “T/K at 24 h (tumor uptake/kidney uptake)” value turned out to be 1.0 and the “T at 96 h (tumor uptake)” value was 20.0. The “T/K at 96 h (tumor uptake/kidney uptake)” value in data set [2] amounted to 3.7. Moreover, in data set [2] (compared to PSMA-617 (C-1)), the “uptake ratio between tumor to kidney” value is given as “poor uptake ratio between tumor to kidney”.

As to `O=C(O)CC[C@H](NC(=O)N[C@@H](CCCCNC(=O)[C@H](Cc1ccc2ccccc2c1)NC(=O)[C@H]1CC[C@H](CNC(=O)[C@H](CCCCNC(=O)CN2CCN(CC(=O)O)CCN(CC(=O)O)CCN(CC(=O)O)CC2)NC(=O)CCCOC(=O)CNC(=O)[C@H](CCC(=O)O)NC(=O)CCCc2ccc(I)cc2)CC1)C(=O)O)C(=O)O` [Example I-2, 4pIBA-Glu-ESL1-Lys(DOTA)-Trx-2NaI-eKuE], the “Relative Binding Affinity” value at PSMA (setting [3]) is given as 1.59. Further, at PSMA (relative), the “Relative Binding Affinity” value was 0.75. Besides, in data set [1], the “% Remaining 0 min” value was determined as 100%, the “% Remaining 1 h” value is 95.6%, the “% Remaining 4 h” value turned out to be 93.2% and the “% Remaining 24 h” value turned out to be 76.5%. Also, in data set [1], the “% Remaining 48 h” value worked out at 67.5% and the “% Remaining 72 h” value worked out at 57.3%. Moreover, the “T½” value in data set [1] (setting [4]) stood at 80.4 h. Moreover, in data set [2], the “T/K at 4 h (tumor uptake/kidney uptake)” value came to 0.6, the “T at 24 h (tumor uptake)” value came out at 32.4, the “T/K at 24 h (tumor uptake/kidney uptake)” value came to 5.0 and the “T at 96 h (tumor uptake)” value is on record as 9.8. In addition, the “T/K at 96 h (tumor uptake/kidney uptake)” value in data set [2] is listed as 10.1. The “uptake ratio between tumor to kidney” value in data set [2] (mice bearing PC3-PIP tumor, compared to HTK01169 (C-2)) was “improved uptake ratio between tumor to kidney”.

Take `O=C(O)CC[C@H](NC(=O)N[C@@H](CCCCNC(=O)[C@H](Cc1ccc2ccccc2c1)NC(=O)[C@H]1CC[C@H](CNC(=O)[C@H](CCCCNC(=O)CCCOC(=O)CNC(=O)CN2CCN(CC(=O)O)CCN(CC(=O)O)CCN(CC(=O)O)CC2)NC(=O)[C@H](CCC(=O)O)NC(=O)CCCc2ccc(I)cc2)CC1)C(=O)O)C(=O)O` [Example I-3, 4pIBA-Glu-Lys(-ESL1-DOTA)-Trx-2NaI-eKuE]: at PSMA (setting [3]), the “Relative Binding Affinity” value turned out to be 1.30. Besides, the “Relative Binding Affinity” value on PSMA (relative) is recorded as 1.30. In data set [1], the “% Remaining 0 min” value was 100%, the “% Remaining 1 h” value came to 88.6%, the “% Remaining 4 h” value is on record as 54.8% and the “% Remaining 24 h” value was found to be 13.0%. Besides, in data set [1], the “% Remaining 48 h” value was 9.30% and the “% Remaining 72 h” value is 3.99%. Further, in data set [1] (setting [4]), the “T½ (h)” value is recorded as 4.9* h. In data set [2], the “T/K at 4 h (tumor uptake/kidney uptake)” value was determined as 0.3, the “T at 24 h (tumor uptake)” value is recorded as 13.9, the “T/K at 24 h (tumor uptake/kidney uptake)” value is 0.8 and the “T at 96 h (tumor uptake)” value amounted to 6.3. The “T/K at 96 h (tumor uptake/kidney uptake)” value in data set [2] is reported as 4.0.

As to `O=C(O)CC[C@H](NC(=O)N[C@@H](CCCCNC(=O)[C@H](Cc1ccc2ccccc2c1)NC(=O)[C@H]1CC[C@H](CNC(=O)[C@H](CCCCNC(=O)CCC(=O)NCCSSCCNC(=O)CN2CCN(CC(=O)O)CCN(CC(=O)O)CCN(CC(=O)O)CC2)NC(=O)[C@H](CCC(=O)O)NC(=O)CCCc2ccc(I)cc2)CC1)C(=O)O)C(=O)O` [Example I-4, 4pIBA-Glu-Lys(-SSL1-DOTA)-Trx-2NaI-eKuE], the “Relative Binding Affinity” value on PSMA (setting [3]) was 0.95. Besides, the “Relative Binding Affinity” value on PSMA (relative) came out at 0.95. In data set [2], the “T/K at 4 h (tumor uptake/kidney uptake)” value turned out to be 0.1, the “T at 24 h (tumor uptake)” value worked out at 0.79, the “T/K at 24 h (tumor uptake/kidney uptake)” value is 0.2 and the “T at 96 h (tumor uptake)” value is 0.3. Besides, in data set [2], the “T/K at 96 h (tumor uptake/kidney uptake)” value is reported as 1.2.

Regarding `O=C(O)CC[C@H](NC(=O)N[C@@H](CCCCNC(=O)[C@H](Cc1ccc2ccccc2c1)NC(=O)[C@H]1CC[C@H](CNC(=O)COCCOCCNC(=O)[C@H](CCCCNC(=O)CCCOC(=O)CNC(=O)CN2CCN(CC(=O)O)CCN(CC(=O)O)CCN(CC(=O)O)CC2)NC(=O)[C@H](CCCCNC(=O)COCCOCCNC(=O)COCCOCCNC(=O)[C@H](CCC(=O)O)NC(=O)CCCc2ccc(I)cc2)NC(=O)COCCOCCNC(=O)COCCOCCNC(=O)[C@H](CCC(=O)O)NC(=O)CCCc2ccc(I)cc2)CC1)C(=O)O)C(=O)O` [Example I-7, 4pIBA-Glu-OEG-OEG-Lys(-OEG-OEG-Glu-4pIBA)-Lys(-ESL1-DOTA)-OEG-Trx-2NaI-eKuE], the “Relative Binding Affinity” value on PSMA (setting [3]) is given as 0.56. At PSMA (relative), the “Relative Binding Affinity” value came out at 0.54. Further, in data set [2], the “T/K at 4 h (tumor uptake/kidney uptake)” value stood at 0.7, the “T at 24 h (tumor uptake)” value was 16.7, the “T/K at 24 h (tumor uptake/kidney uptake)” value is on record as 0.9 and the “T at 96 h (tumor uptake)” value turned out to be 2.6. Besides, the “T/K at 96 h (tumor uptake/kidney uptake)” value in data set [2] worked out at 1.4.

In the case of `O=C(O)CCCCCCCCCCCCCCCCC(=O)N[C@@H](CCC(=O)NCCOCCOCC(=O)NCCOCCOCC(=O)N[C@@H](CCCCNC(=O)CCCOC(=O)CNC(=O)CNC(=O)CNC(=O)CNC(=O)CN1CCN(CC(=O)O)CCN(CC(=O)O)CCN(CC(=O)O)CC1)C(=O)NCCOCCOCC(=O)NC[C@H]1CC[C@H](C(=O)N[C@@H](Cc2ccc3ccccc3c2)C(=O)NCCCC[C@H](NC(=O)N[C@@H](CCC(=O)O)C(=O)O)C(=O)O)CC1)C(=O)O` [Example I-46, HO-C18-gGlu-OEG-OEG-Lys(-ESL1-Gly-Gly-Gly-DOTA)-OEG-Trx-2NaI-eKuE], in data set [1], the “% Remaining 0 min” value is recorded as 100%, the “% Remaining 1 h” value worked out at 95.1%, the “% Remaining 4 h” value is recorded as 93.5% and the “% Remaining 24 h” value was determined as 81.9%. Besides, in data set [1], the “% Remaining 48 h” value is 70.6% and the “% Remaining 72 h” value came out at 55.9%. Further, the “T½ (h)” value in data set [1] (setting [4]) is reported as 102* h.

Regarding “(HO-C18-gGlu-Lys(-OEG-DOTA)-OEG-OEG-OEG-NH2CH2CH2NH-TMA(-OEG-Trx-2NaI-eKuE)2 [Example C-7, reference compound]”, the “Relative Binding Affinity” value on PSMA (setting [3]) and at PSMA (relative) was 0.14 each time.

Take “DOTA-gGlu(-eLys-4pIBA)-Trx-2NaI-eKuE [Example C-9, reference compound]”: the “Relative Binding Affinity” value on PSMA (setting [3]) came to 0.92.

For “HO-C18-gGlu-OEG-OEG-Gly-5hPA-Lys(DOTA)-OEG-Trx-2NaI-eKuE [Example I-49]”, the “Relative Binding Affinity” value on PSMA (setting [3]) and on PSMA (relative) was 0.09 in each case.

In the case of “HO-C18-gGlu-OEG-OEG-OEG-Lys(DOTA)-OEG-Trx-2NaI-eKuE [Example C-6, reference compound]”, the “Relative Binding Affinity” value on PSMA (setting [3]) and at PSMA (relative) was 0.05 each time.

For “[HO-C20-gGlu-Lys(-ESL1-ESL1-ESL1-DOTA)-OEG-OEG-OEG-NH2CH2CH2NH—]-TMA-(-OEG-Trx-2NaI-eKuE)2 [Example I-44]”, the “Relative Binding Affinity” value at PSMA (setting [3]) was 0.13.
